The values below come from the supplement of paper PMC9112550, “Optimization of the antimicrobial peptide Bac7 by deep mutational scanning” (BMC Biology, 2022).

The subject of this series is Escherichia coli TOP10. As to the kind of experiment: shrunken log2 fold change of peptide-encoding DNA abundance (4.5 h post-induction vs induction); higher = less antimicrobial activity (less host growth inhibition). The note with it: time post-induction: 4.5 h; library: site-saturation at positions 5, 18, 19, 20.
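Further: peptides expressed intracellularly from a pBAD plasmid library in pooled LB shake-flask culture, induced with 0.3% L-arabinose, DNA abundance read by NGS, three biological replicates, DESeq2 with apeglm shrinkage.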

For RRIRCRPPRLPRPRPRPLESPRP, the “shrunken log2 fold change” value is 0.0242. As for RRIRFRPPRLPRPRPRPICGPRP, the “shrunken log2 fold change” value is 0.0198. As for RRIRQRPPRLPRPRPRPCLRPRP, the “shrunken log2 fold change” value was -0.379.

For RRIRVRPPRLPRPRPRPCWGPRP, the “shrunken log2 fold change” value is -0.0908.

As for RRIRLRPPRLPRPRPRPRSIPRP, the “shrunken log2 fold change” value is -0.247. Next, RRIRWRPPRLPRPRPRPLYAPRP: 0.188; RRIRLRPPRLPRPRPRPSGNPRP: -0.111.

As for RRIRQRPPRLPRPRPRPAVRPRP, the “shrunken log2 fold change” value was -0.0154. With RRIRNRPPRLPRPRPRPEVNPRP, the “shrunken log2 fold change” value was -0.0723. Turning to RRIRYRPPRLPRPRPRPCPPPRP, the “shrunken log2 fold change” value is -0.839. Next, RRIRSRPPRLPRPRPRPPFVPRP: 0.148; RRIRYRPPRLPRPRPRPHFFPRP: -0.518. Next, RRIRSRPPRLPRPRPRPAGDPRP: 0.116; RRIRFRPPRLPRPRPRPHTNPRP: -0.453. Take RRIRHRPPRLPRPRPRPHYCPRP: the “shrunken log2 fold change” value is -0.0453.

With RRIRIRPPRLPRPRPRPDLKPRP, the “shrunken log2 fold change” value is -0.194.

Turning to RRIRSRPPRLPRPRPRPFGEPRP, the “shrunken log2 fold change” value was -0.066.

RRIRARPPRLPRPRPRPWREPRP: the “shrunken log2 fold change” value was -0.0619. For RRIRPRPPRLPRPRPRPIHCPRP the value was -0.125; for RRIRMRPPRLPRPRPRPNTVPRP, -0.162; for RRIRVRPPRLPRPRPRPILHPRP, 1.12. As for RRIRPRPPRLPRPRPRPCNRPRP, the “shrunken log2 fold change” value was -0.148.

For the sequence RRIRGRPPRLPRPRPRPNEQPRP, the “shrunken log2 fold change” value was -0.0722. RRIRVRPPRLPRPRPRPWIQPRP: the “shrunken log2 fold change” value came to 0.0857. Turning to RRIRKRPPRLPRPRPRPKFWPRP, the “shrunken log2 fold change” value is 0.798. With RRIRFRPPRLPRPRPRPVAAPRP, the “shrunken log2 fold change” value stood at 1.41. Regarding RRIRYRPPRLPRPRPRPHVSPRP, the “shrunken log2 fold change” value is 0.0324. Take RRIRYRPPRLPRPRPRPHMPPRP: the “shrunken log2 fold change” value is -0.38. For the sequence RRIRVRPPRLPRPRPRPSHSPRP, the “shrunken log2 fold change” value was -0.171. Regarding RRIRCRPPRLPRPRPRPKKHPRP, the “shrunken log2 fold change” value is -0.217. For RRIRKRPPRLPRPRPRPTCWPRP the value was 0.499; for RRIRMRPPRLPRPRPRPTVDPRP, 0.00715. For RRIRNRPPRLPRPRPRPSCKPRP the value was 0.065. As for RRIRQRPPRLPRPRPRPTMLPRP, the “shrunken log2 fold change” value was -0.339. Next, RRIRLRPPRLPRPRPRPFSLPRP: -0.127; RRIRWRPPRLPRPRPRPLNCPRP: -0.0452. For RRIRMRPPRLPRPRPRPRFMPRP the value was 0.385; for RRIRSRPPRLPRPRPRPNVMPRP, -0.204. Next, RRIRMRPPRLPRPRPRPFGRPRP: -0.00674; RRIRMRPPRLPRPRPRPSNLPRP: 0.00954. Consider RRIRKRPPRLPRPRPRPKHAPRP, for which the “shrunken log2 fold change” value was -0.0322. For RRIRKRPPRLPRPRPRPYMPPRP the value was -0.315.

RRIRGRPPRLPRPRPRPWFAPRP: the “shrunken log2 fold change” value came to 0.0421. For RRIRARPPRLPRPRPRPSVRPRP the value was -0.0488. Next, RRIRCRPPRLPRPRPRPISNPRP: -0.145. For RRIRPRPPRLPRPRPRPVFVPRP the value was 0.0959; for RRIRHRPPRLPRPRPRPTKYPRP, -0.345. Regarding RRIRPRPPRLPRPRPRPAQKPRP, the “shrunken log2 fold change” value came out at 0.273. Next, RRIRTRPPRLPRPRPRPKTPPRP: -0.0565; RRIRQRPPRLPRPRPRPKYMPRP: -0.386; RRIRIRPPRLPRPRPRPNDAPRP: -0.182.

For the sequence RRIRSRPPRLPRPRPRPGGQPRP, the “shrunken log2 fold change” value stood at 0.279.

Consider RRIRMRPPRLPRPRPRPCGVPRP, for which the “shrunken log2 fold change” value turned out to be 0.714. Take RRIRVRPPRLPRPRPRPMWIPRP: the “shrunken log2 fold change” value stood at 0.00541. For RRIRQRPPRLPRPRPRPRRFPRP the value was 0.222.

As for RRIRPRPPRLPRPRPRPLDWPRP, the “shrunken log2 fold change” value was determined as 0.349. Next, RRIRDRPPRLPRPRPRPYQNPRP: -0.288.

On to RRIRYRPPRLPRPRPRPQCWPRP, for which the “shrunken log2 fold change” value was -0.321. With RRIRIRPPRLPRPRPRPPDCPRP, the “shrunken log2 fold change” value was -0.0639.

Take RRIRNRPPRLPRPRPRPWCVPRP: the “shrunken log2 fold change” value is -0.396. Next, RRIRMRPPRLPRPRPRPWSGPRP: -0.0411; RRIRQRPPRLPRPRPRPPQSPRP: 0.671. Next, RRIRKRPPRLPRPRPRPGMHPRP: 0.213; RRIRERPPRLPRPRPRPCCHPRP: -0.603; RRIRWRPPRLPRPRPRPWPDPRP: 0.0849. Next, RRIRFRPPRLPRPRPRPRKNPRP: 0.266. In the case of RRIRDRPPRLPRPRPRPSFHPRP, the “shrunken log2 fold change” value was -0.429.

With RRIRARPPRLPRPRPRPSAGPRP, the “shrunken log2 fold change” value amounted to 0.65. In the case of RRIRERPPRLPRPRPRPNAMPRP, the “shrunken log2 fold change” value was 0.0107. Next, RRIRYRPPRLPRPRPRPPSKPRP: -0.409; RRIRPRPPRLPRPRPRPFNCPRP: -0.537; RRIRLRPPRLPRPRPRPSNNPRP: -0.928. Take RRIRQRPPRLPRPRPRPMCHPRP: the “shrunken log2 fold change” value was -0.136. For RRIRKRPPRLPRPRPRPFKSPRP the value was -0.294; for RRIRVRPPRLPRPRPRPEMPPRP, 0.0341. For RRIRDRPPRLPRPRPRPCKCPRP the value was -0.147; for RRIRPRPPRLPRPRPRPRCIPRP, -0.2; for RRIRKRPPRLPRPRPRPRSLPRP, -0.00364. Next, RRIRQRPPRLPRPRPRPNNVPRP: -0.149; RRIRTRPPRLPRPRPRPWLDPRP: -0.181.

Regarding RRIRSRPPRLPRPRPRPSMHPRP, the “shrunken log2 fold change” value stood at 0.402. Consider RRIRHRPPRLPRPRPRPLETPRP, for which the “shrunken log2 fold change” value was -0.47.

Turning to RRIRVRPPRLPRPRPRPGEEPRP, the “shrunken log2 fold change” value turned out to be 0.00621.

As for RRIRMRPPRLPRPRPRPYIVPRP, the “shrunken log2 fold change” value was -0.00174. In the case of RRIRIRPPRLPRPRPRPPINPRP, the “shrunken log2 fold change” value was -0.305. In the case of RRIRIRPPRLPRPRPRPNLDPRP, the “shrunken log2 fold change” value is -0.564. Next, RRIRLRPPRLPRPRPRPYGAPRP: -0.0327. Turning to RRIRWRPPRLPRPRPRPHYYPRP, the “shrunken log2 fold change” value was -0.581. On to RRIRTRPPRLPRPRPRPWEPPRP, for which the “shrunken log2 fold change” value is -0.0542.

For RRIRNRPPRLPRPRPRPGAPPRP, the “shrunken log2 fold change” value was 0.492. Regarding RRIRKRPPRLPRPRPRPMIQPRP, the “shrunken log2 fold change” value was found to be 0.195. As to RRIRVRPPRLPRPRPRPPIEPRP, the “shrunken log2 fold change” value is -0.115. RRIRRRPPRLPRPRPRPCCNPRP: the “shrunken log2 fold change” value is -0.029.

With RRIRRRPPRLPRPRPRPIDEPRP, the “shrunken log2 fold change” value was -0.106.

In the case of RRIRTRPPRLPRPRPRPGMVPRP, the “shrunken log2 fold change” value was found to be 0.279. In the case of RRIRARPPRLPRPRPRPPHPPRP, the “shrunken log2 fold change” value was 0.527.

Take RRIRIRPPRLPRPRPRPGSTPRP: the “shrunken log2 fold change” value is -0.549. For RRIRRRPPRLPRPRPRPEAVPRP the value was 1.53; for RRIRERPPRLPRPRPRPAIHPRP, 0.125. With RRIRVRPPRLPRPRPRPQIQPRP, the “shrunken log2 fold change” value is -0.034. As to RRIRYRPPRLPRPRPRPFEDPRP, the “shrunken log2 fold change” value is -0.057.

Turning to RRIRSRPPRLPRPRPRPDFTPRP, the “shrunken log2 fold change” value is 0.0298.

Consider RRIRMRPPRLPRPRPRPPGMPRP, for which the “shrunken log2 fold change” value was 1.08. Next, RRIRYRPPRLPRPRPRPSANPRP: -0.0919; RRIRHRPPRLPRPRPRPIGPPRP: -0.00697; RRIRSRPPRLPRPRPRPTTNPRP: 0.00407.

Take RRIRGRPPRLPRPRPRPIAHPRP: the “shrunken log2 fold change” value was 0.334. For RRIRHRPPRLPRPRPRPGQGPRP the value was -0.104; for RRIRFRPPRLPRPRPRPEGCPRP, 0.013. For RRIRDRPPRLPRPRPRPYKGPRP the value was -0.00133. Turning to RRIRSRPPRLPRPRPRPDKIPRP, the “shrunken log2 fold change” value came out at 0.11.

Turning to RRIRIRPPRLPRPRPRPYETPRP, the “shrunken log2 fold change” value is -0.0282. Regarding RRIRMRPPRLPRPRPRPDFTPRP, the “shrunken log2 fold change” value was 0.463. Regarding RRIRLRPPRLPRPRPRPTMYPRP, the “shrunken log2 fold change” value was 0.163. RRIRNRPPRLPRPRPRPFPLPRP: the “shrunken log2 fold change” value was -0.0286. RRIRHRPPRLPRPRPRPDQKPRP: the “shrunken log2 fold change” value was 0.0292. For RRIRDRPPRLPRPRPRPNPPPRP the value was 0.2; for RRIRTRPPRLPRPRPRPVCTPRP, 0.162; for RRIRGRPPRLPRPRPRPTKDPRP, 0.7. Next, RRIRERPPRLPRPRPRPDFEPRP: -0.117; RRIRGRPPRLPRPRPRPPMFPRP: 0.295.

RRIRPRPPRLPRPRPRPHPSPRP: the “shrunken log2 fold change” value stood at 0.000134.

With RRIRFRPPRLPRPRPRPNHSPRP, the “shrunken log2 fold change” value was -0.832. Take RRIRRRPPRLPRPRPRPCRHPRP: the “shrunken log2 fold change” value was -0.105. Next, RRIRCRPPRLPRPRPRPDAKPRP: 0.0864.
